Two molecules from patent US20030157553A1 (published 2003) can be followed below.

The experiment addresses T1, phosphorylated β2-adrenergic receptor (agonist-activated) (UniProt P07550 1-413, limits assumed, phosphorylated (sites and kinase not stated for the experiment)).
T1 construct: Phosphorylated form of the purified, reconstituted β2AR; also called P-β2AR
The experiment in a line: agonist affinity shift assay, [125I]iodopindolol displacement by agonist with saturating (1 µM) purified arrestin, P-β2AR. The method, then: Agonist Affinity ShiftAssay—P-β₂AR or β₂AR (10-15 fmol/assay) was incubated in 0.25 ml of 10 mM Tris-HCl, pH 7.4, 100 mM NaCl (buffer A) containing 0.1 mg/ml bovine serum albumin in the presence of 65-75 fmol of [¹²⁵I] iodopindolol (NEN Life Science Products) and the indicated concentrations of arrestins and agonists for 60 min at 22° C. Samples were then cooled on ice and loaded at 4° C. onto 2 ml of Sephadex G-50 columns. Receptor-containing liposomes with bound radioligand were eluted with buffer A (between 0.6 and 1.5 ml), and radioactivity was quantitated in a liquid scintillation counter. Nonspecific binding was determined in the presence of 10 μM alprenolol. All experiments were repeated two to three times, and data are presented as means ±S.D.
It was recently reported that arrestin-receptor complex is similar to G protein-receptor complex in two respects: agonists have higher affinity for arrestin-receptor complex than for receptor alone, and only a fraction of the receptors forms such a high agonist affinity complex (HAC) even at saturating concentrations of arrestin (Gurevich et al. (1997) supra). The maximum percentage of the receptor in HAC gives a good estimate of the propensity of a given arrestin protein to bind tightly to the receptor (arrestin competency) Gurevich et al. (1997) supra)). […]

B1: wild type bovine β-arrestin (other)
chain: MGDKGTRVFKKASPNGKLTVYLGKRDFVDHIDLVEPVDGVVLVDPEYLKERRVYVTLTCAFRYGREDLDVLGLTFRKDLFVANVQSFPPAPEDKKPLTRLQERLIKKLGEHAYPFTFEIPPNLPCSVTLQPGPEDTGKACGVDYEVKAFCAENLEEKIHKRNSVRLVIRKVQYAPERPGPQPTAETTRQFLMSDKPLHLEASLDKEIYYHGEPISVNVHVTNNTNKTVKKIKISVRQYADICLFNTAQYKCPVAMEEADDTVAPSSTFCKVYTLTPFLANNREKRGLALDGKLKHEDTNLASSTLLREGANREILGIIVSYKVKVKLVVSRGGLLGDLASSDVAVELPFTLMHPKPKEEPPHREVPEHETPVDTNLIELDTNDDDIVFEDFARQRLKGMKDDKEEEEDGTGSPRLNDR
notes: Full-length wild type from construct pBARR; also called wild type β-arrestin; bovine β-arrestin 1A
In the case of B1, the “percentage of receptor in high agonist affinity complex (HAC)” value came to 31%.

B2: β-arrestin-(Arg169→Glu) (other)
chain: MGDKGTRVFKKASPNGKLTVYLGKRDFVDHIDLVEPVDGVVLVDPEYLKERRVYVTLTCAFRYGREDLDVLGLTFRKDLFVANVQSFPPAPEDKKPLTRLQERLIKKLGEHAYPFTFEIPPNLPCSVTLQPGPEDTGKACGVDYEVKAFCAENLEEKIHKRNSVRLVIEKVQYAPERPGPQPTAETTRQFLMSDKPLHLEASLDKEIYYHGEPISVNVHVTNNTNKTVKKIKISVRQYADICLFNTAQYKCPVAMEEADDTVAPSSTFCKVYTLTPFLANNREKRGLALDGKLKHEDTNLASSTLLREGANREILGIIVSYKVKVKLVVSRGGLLGDLASSDVAVELPFTLMHPKPKEEPPHREVPEHETPVDTNLIELDTNDDDIVFEDFARQRLKGMKDDKEEEEDGTGSPRLNDR
notes: Bovine β-arrestin point mutant made in pBARR
As to B2, the “percentage of receptor in high agonist affinity complex (HAC)” value was 52%.
